Assay results taken from the nanobody polyreactivity screen of Harvey et al. (2022).

Assay: yeast display, Sf9 membrane polyspecificity reagent, FACS + sequencing; frameworks hold sequencing errors
In short: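 After 36–48 hours of galactose induction, yeast (Saccharomyces cerevisiae BJ5465) displaying a synthetic nanobody library were stained at 4 °C for 1 hour with 10% biotinylated, detergent-solubilized Sf9 membrane reagent. Streptavidin microbeads enriched the stained cells before FACS sorting into low and high (top ~1%) gates on anti-HA and streptavidin fluorescence. Each clone's polyreactivity label reflects its gate of origin.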

Sequence | polyreactivity (PSR sort gate)
QVQLVESGGGLVQAGGSLRLSCAASGSIFGTYAMGWYIQAPGKEREFVAAISWSDGSTYYADSVKGRFTISRDNAKNTVYLQMNSLKPEDTAVYYCAAGPSQYTEFDYWGQGTQVTVSS | low polyreactivity
QVQLVESGGGLVQAGGSLRLSCAASGRTFGKYAMAWYRQAPGKERELVAAITTRVVITYYADSVKGRFTISRDNAKNTVYLQMNSLKPEDTAVYYCAADPEKIYRPVNHYYYWGQGTQVTVSS | low polyreactivity
QVQLVESGGGLVQAGGSLRLSCAASGFIFRYNAMGWYRQAPGKEREFVAAISQGGASTYYADSVKGRFTISRVNAKNTVYLQINSLKPEDTAVYYCAREPSIFTPSYDYWGQGTQVTVSS | low polyreactivity
QVHLVDSGGGLVQARGSLRLSCAASGLTFRYYTMAWYRQAPGKERELVAAISSSGGSTYYADSVKGRFTISRDNAKNTVYLQMNSLKPEDTAVYYCADSASLRHVYWGQGTQVTVSS | high polyreactivity
QVQLVESGGGLVQAGGSLRLSCAASGNTFEYYVMGWYRQAPGKERELVAAITWSTGSTYYADSVKGRFTISRDNAKNTVYLQMNSLKPEDTAVYYCAALYYFIFGRPTRFDYWGLGTQVTVSS | low polyreactivity
QVHLVESGGGLVQAGGSLRLICAASGSIFSAYALGWYRQAPGKERELVAAITWRGGSTYYADSVKGRFTISRDNAKNTVYLQMNSLKPEDTAVYYCAKYYYYLRSARKYDYWGQGTQVTVSS | high polyreactivity
QVQLVESGAGLVQAGGSLRLICAASGRIFDRYTMGRYRQAPGKERELVAAITQRGTSTYYADSVKGRFTLSRDTAKNTVYLQMNSLKPEDTAGYYCAATALFSGLNKRYYWGQGTQLTVSS | high polyreactivity
QVQLVESGGGLVQAGGSLRLSCAASGITFGRNAMGWYRQAPGKERELVAAISRGGSTNYADSVKGRFTISRDNAKNTVYLQMNSLKPEDTAVYYCAAQYKYRRYPKVAFEYWGQGTQVTVSS | high polyreactivity
QVQLVESGGGLDQAGGSLRLSCAASGFTFYPYAMGWYRQAPGKERELVASITSAGGTNYADSVKGRFTISRDNAKNTVYVQLNSLKPEDTAVYYCAAKYRSRGPDYYFNSDYWGQGTQVTVSS | low polyreactivity
QVQLVESGGGLVQAGGSLRLSCAASGSTFRYNAMGWYRQAPGKERELVAAITSGGTTNYADSVKGRFTISRDNAKNTVYLQMNSLKPEDTAVYYCAKKRPGFLRYGSIGEFQYDYWGQGTQVTVSS | low polyreactivity
QVQLVESGGGLVQAGGSLRLSCAASGRTFGRNALGWYRQAPGKEREFVAAISRRGDTTYYADSVKGRFTISRDNAKNTVYLQMNSLKPEDTAVYYCNADVIKDRFYWYYYWGQGTQVTVSS | low polyreactivity
QVQLVESGGGLVQAGCSLRLSCAASGNSFPSYAMGWYRQAPGKARELVAAITTGGRTYYADSVKGRFTISRDNAKNTVYLQMNSLNPEDTAVYYCAADWGVRYPWYRYYYWGQATQVTVSS | high polyreactivity
QVQLVESGGGLVQAGGSLRLSCAASGRTYPAYAMGWYRQAPGKERELVAAITYDGGTTYYADSVKVRFTISRDNAKNTVYLQMNSLKPEDTAVYYSAAVYDEDQYDYWGQGTQVTVSS | low polyreactivity
QVQLVESGGGLVQAGGSLRLSCAASGSIFKGYAMGWYRQAPGKERELVASISWRGDNTYYADSVKGRFTISRDYAKNTVYLQMNSLKPEDTAVYYCNAQSREHYFFIYDYWGQGTQVTVSS | high polyreactivity
QVQLVESGGGLVQAGGSLRLSCAASGITFRRKAMGWYRQAPGKERELVAAISASGTRTYYADSVKGRLTISRDNAKNTVYLQMNSLKPEDTAVYYCATRVTSRSSGFDYWGQGTQVTVSW | high polyreactivity
QVQLVESGGGLVQAGGSLRLSCAASGSIFGISTMGWYRQAPGKERELVAAITSGDRTSYADSVKGRFTISRDNAKNTVYLQMNTLKPEDTAVYYCARDYYSYRYLRYDYWGQGTQVTVSS | low polyreactivity
QVQLVESGGGLVQAGGSLRLSCAASGSTFYSYAMGWSRQAPGKERELVAAITRGGRTYYADSVKGRFTISRDNAKNTVYLQMNSLKPEDTAVYYCNVVTKFTGRGYDYWGQGTQVTVSS | high polyreactivity
QVQLVESGGGLVQAGGSLRLSCAASGRIFFYNVMGWYRQAPGKERELVAAITTIGGSTYYADSVKGRFTISRDNAKNTVYLQMNSLKPEDTAVYYCAAGWVTNSDGMDYWGQGTQVTVSS | low polyreactivity
QVQLVESGGGLDQAGGSLRLSCAASGFIFWRNTMGWYRPAPGKERELVAVITRGGSTYYADSVKGRFTISRDTAKNTVYLQMNSLKPEDTAVYNSAARNDYFKTFSGYDYWGQGTQVTVSS | low polyreactivity
QVQLVESGGGLVQAGGSLRLSCAASGFTFKFYAMGWYRPAPGKERELVAAISSGGASTYYADSVKGRFTISRDNAKNTVYLQMNSLKPEDTAVYYFAARSGGPSDGSGYWGQGTEVTVSS | low polyreactivity
QVQLVESGGGLVQAGGSLRLICAASGNIFVPNAMGWYREAPGKEWELVAAIRRGGSTNYADSVKGRFTISRDNAKTTVYFQMNSLKPEDTAVYYCAKSRVSFTDLEGYYWGQGTQVTVSS | low polyreactivity

Sequence | polyreactivity (PSR sort gate)
HVQLVESGGGLVQAGGSLRLSCAASGITLTIYVMGGYRQAPGKERELVAAISTSGGSTYYADSVKGRFTISRDNAKNTDYLQMNSLKPEDTAVYYCNATPLRRYYGRYLMDYWGQGTQVTVSS | high polyreactivity
QVQLVESGGGLVQAGGSLRLSCAASGRIFRLYVMGWYRQAPGKERELVAAITRGGGTYYADSVKGRFTISRDNAKNTVYLQMNSLKPEDTAVYYCAVGTYTIYSGTLYDYKYYWGQGTQVTVSS | low polyreactivity
QVQLVESGGGLVQAGGSLRLSCAASGRTFGKYAMGWYRQAPGKERELVARISRRGGTTYYADSVKGRFTISRDNAKNTVYLQMNSLKPEDTAVYYCAAGGTYGAVEEAHDSWGHGTQVTVSS | high polyreactivity
QVQLVESGGGLVKAGGSLRLSCAASGFIFGYNAMGWDRQAPGKERELVAVITDSSDSTYYADSVKGRFTISRDNAMNTVYLQMNSLKPEDTAVYYCDTDYGYAGDYWGQGTQVTVSS | low polyreactivity
QVQLVESGGGLVQAGGSLRLSCAASGRIFPINVMGWYRQAPGKERELVAAISGRGGSTYYADSVKGRFTISRDNAKNTVYLQMNSLKPEDTAVYYCAARSPYRYYYWGQGTQVTVSS | high polyreactivity
QVQLEESGGGLVQAGGSLRLSCAASGRIFYEYAMGWYRQAPGKERELVADISSGDDTYYADSVKGRFTISRDNAKNTVYLQMNSLKPEDTAVYYCAADDGGSGFIYDYWGQGTQVTVSS | low polyreactivity
QVQLVESGGGLVQAGGSRRLSCAASGFMFGVNAMGWYRQAPGKERELVAVISVRGGSTYYADSLKGRFTISRDNAKNTVYLQMNSLKPEDTAVYYCAADTFAGYYYWGQGTQVTVSS | high polyreactivity
QVQLVESGGGLVQAGGSLRLSCAASGRTFYGYAMGWYRQAPGKERELVAGITSRVGSTYYADSVKGRFTISRDNAKNNVYLQMNSLKPEDTAVYYCAADRYAVRSYHYDYWGQGTQVTVSS | low polyreactivity
QVQLVESGGGLVQAGGSLRLSCAASGSSFRGYAMGWSRQAPGKERELVAAISRSGGSTYYADSVKGRFTISRDNAKNTVYLQMKSLKPEDTAVYYCNARCSKRSSRGYDYWGQGTQVTVSS | high polyreactivity
QVQLVESGGGLVQAGGSLRLSCAPSGRIFEIYAMGWYRQAPGKESELVAAISWRGVSTYYADSVKGRFTISRDNAKNTVYLQMNSLKPEDTAVYYCNKDVDYFWYVEYDYWGQGTQVTVSS | low polyreactivity
QVQLVESGGGLVQAGGSLRLSCAASGPILGQYAMGGYRQAPGKERELVAAITYSGGRTYYADSVKGRFTISRDIAKNTVYLQMNSLKPEDTAVYYCAARGRASVERRGGYYYWGQGTQVTVSS | high polyreactivity
QVQLVESGGGLVQAGGSLRLSCAASGYIFNYYGMGWYRQAPGKDRELVATISRGASTNYADSVKGRFTISRDNARNTVYFQMNTLKPEDTAVYYCAYWGQRTQVTVSS | low polyreactivity
QVQLVESGGGLVQAGGSLRLSCAASGFTFYYYAMGWYRQAPGKERELVAAISWSSGRTYYADSVKGRFTISRDNAKNTVYLQMNSLKPEDTAVYYCAADGYAGSWWYDYWGQCTQVTVSS | high polyreactivity
QVQLVESGGGLVQAGGSLRLTCAASGYTIIQYAMGWYRQAPGKERELVAGITWSGGSTYADSVKGRFTISRDNAKNTVYLQMNSLKPEATAVYYCAADDRDIYQYGTPYGSGIRYDYWGQGTQVTVSS | low polyreactivity
QVQLVESGGGLVQAGGSLRLTCAASGSTFPVYAMGWSRQAPGKERELVASISSGADTIYADSVKGRFTISRDNAKNTVYLQMNSLKPEDTSVYYCAVYRPGLTYYDYDYWGQGTQVTVSS | low polyreactivity
QVQLVESGGGLVQAGGSLRLSCAASGSIFSNNAMGWYRQAPGKERELVAAITRSGGNTYYADSVKGRFTISRDNAKNTVYLQMNSLKPEDTAVYYCNAVHLRKMYYWGQGTQVTVSS | high polyreactivity
QVQLVESGGGLVKAGGSLRLSCAASGFTFRRNAMGWYRQAPGKERELVAAITYNGGTTYYADSVKGRFTISRDNAKNTVYLQMNSLKPEDTAVDYCNAPYGRQGYDYWGQGTQVTVSS | low polyreactivity
QVQLVESGGGLVQAGGRLRLSCAASGLTFPRNAMGWYRQAPGKERELVAAISWRGSSTYYADSVKGRFTISRDNAKNTVFLQMNSLQPEDTAVYYCAASYAGGQHDYWGQGTQVTVSS | high polyreactivity
QVQLVESGGGLVQAGGSRRLSCAASGSIFSGNTMGWYRQAPGKERELVAAISSGGSTKYADSVKGRFTISRDNAKNTVYFQMNRLNPEDSAVYFCGATSSYRLRDRHRIWYGYWGQGTEVTVSS | high polyreactivity
QVQLVESGGGLVQAGGSLRLSCAASRLTFQDYAMGWYRQAPGKERELVAGISRSGGRTNYADSVKGRFTISRDNAKNTVYLQMNSLKPEDTAVYYCATPYRRLNTWIYDYWGQGTQVTVSS | high polyreactivity
